Assay results from publication PMC3891018 (Scientific Reports, 2014).

Molecular target: H-ficolin (human, UniProt O75636 24-299)
Experiment: SPR

Sequence of H-ficolin (O75636 24-299): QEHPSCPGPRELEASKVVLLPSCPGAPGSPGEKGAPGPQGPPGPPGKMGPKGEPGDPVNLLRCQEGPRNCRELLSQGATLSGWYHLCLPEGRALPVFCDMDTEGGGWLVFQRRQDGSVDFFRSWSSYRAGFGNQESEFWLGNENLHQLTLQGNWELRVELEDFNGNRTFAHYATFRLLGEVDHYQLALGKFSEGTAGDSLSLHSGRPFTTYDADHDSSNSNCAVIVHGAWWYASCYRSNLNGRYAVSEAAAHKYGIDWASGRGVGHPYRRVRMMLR

Row | Kd | Binder
1 | ~1000 nM | DTLMISRTPEVTCVV [nIgG peptide DTLMISRTPEVTCVV 278-292 (peptide 1)]
2 | ~1000 nM | LTCLVKGFYPSDI [nIgG peptide LTCLVKGFYPSDI 394-406 (peptide 6)]
